{"source": "the DeepSol protein solubility set"}
{"experiment": "soluble on expression in E. coli; label from the status in PepcDB or PDB records"}
{"sequence": "AKMLGLDFVAVVPRSTSGAKIALIEAQGGRCHFIDRPPEIYSEARRLAAETNGHFMDQFTHAERATDWRGNNNIAESIYHQMIREEHPVPEWLVMSAGTGGTSATLGRYIRYRRHATRLLVVDPENSAFFGGYDSNSCDYATGMPSRIEGIGRPRVEPSFVGQVIDRMMRVPDAASIATARHASSVLGRRVGGSTGTNLWGAFAVVAEMLAAGRSGSVVTILCDGGERYADTYFDDDWVAGEGIDLTGPAAVLDRFA", "soluble on expression in E. coli": "not soluble"}
{"sequence": "IGDLSYSVSGNIATNNNEIVTLAGSDNMIQNGGDVVRYILKEGEAIGSYYGLETDGLYTQEEIDAGHYYKYGRKPNAGDIKYVPQRENVEWGDDITDDDRTIIGKDVPDFTYGININLQWKNFELSAFGQGVSGTSVAFESEQVFAFMLNSNPRKYHLSRWNEDNPNPNAACPRLYGGNYYDEYNKHFSDYQLFDADYFRIKTISLGYMVPKDAVTRWGLSSLKFFLTGENLFTFRADKDMKDFDPESSTGRGISAFGAKSVAFGVNVSF", "soluble on expression in E. coli": "not soluble"}
{"sequence": "MGSDKIHHHHHHMTQYEVDIMYEVKLDAFNGPLDLLLHLIQKFEIDIYDIPMQALTEQYMQYVHAMKQLEINIASEYLVLASELLMIKSKMLLPQSTSDMDVDDDPREDLVGRLIEYQNYKEYTAILNDMKEERDFYFTKRPTDLSHLETDESWDPNHTIDLTELIVAYQRVKNRVELNTPKSVEIRKETFTIQQATEQVTSRLKDKDHFNFFSLFTFSEPIEQVVTHFLAILEMSKAGIINIEQQRNFEDINIIRGVNYHFG", "soluble on expression in E. coli": "not soluble"}
{"sequence": "MGSDKIHHHHHHMIILGIHDGHDAGAVLLNDEEIYAVNEERLNRVKKYRGFPELSIRKVLEMSGTEPDDVDVIAIAGLFRRQKRLLELEHKLKSIFGPKFKEKAIFVEHHLAHASSAYYSSGLRDAVVLTIDAAGDGLSSTVSIAKDGQMFRIAQSTYIDSLGDFYASVTELLGFKPMRHEGKVMSLAAYGNPRYELSAIIELNGLTFENKLKVIGTEATKKLAEFFEFPLEKAKEVSSNLKRGIMDNELEKKAIEIAASAQAHLERLIEEMGLELKKYELPIAYAGGVAQNVKANAILRRIFGDIWIFPAMDDAGLAFGAAIYVKAQMELLFGKWKPFKLKHVFLGPSYSPEEIEEILKREGLEYEEVDVPSFVADSLVEGKLVGLFQGRLEYGPRALGNRSILADPRNEKVREKLNLALRRDVFQPFAPSILEERFPDYIEDLTGEPNRFMTMSYLASEEFMEVAPAVVHIDGTTRPQSVPKDLGTYYKIIRRFEKRTGVGAVLNTSFNMHGEPIVCSPLDAIRTAKSAKLDVLLLERFGVYIV", "soluble on expression in E. coli": "not soluble"}
{"sequence": "VAVGARCVCGRPLAVVTRPLLPGGVPFPTTCYLTGPEAVKAISHIEAEGKMKEYNDMLAENEDLRAGYERAHELYLAFRHEIALALEDSEEHIEGTSAGGMPVRVKCLHALLAQTLVMGEGANPIGDMALSAIKHEFDPAVCRCAVENEE", "soluble on expression in E. coli": "not soluble"}
{"sequence": "MSLHPADFIEKPPRFPVVDGHVDLVYDLMRRHPGIPFEQVADGQVTAQSLKKGGVWVLVAALYCADSHNGPASAAREMRRLHDYACRYLEWFALLRSPGEMAAALGGSGPPGIVFLVENADALLELDLDEVRRWGVRAVGLTHAGRNRLADGNGVTDPKGLTAAGKSLVRSIAGAGLILDVAHLAEPGFREVASLVTGPLISSHTGLRSFCDRPRNLSDPQVAEIARRGGVVGISAAPEMLVPGGTATLDDLFRQVDHVVQRHGPEAVGIGSDFGGFDDTAKGAEDHGGLPLLAERLLGAGYPAGAVGLIMGGNWCRIYGGIEGHHHHHH", "soluble on expression in E. coli": "soluble"}
{"sequence": "MGSDKIHHHHHHMLNSDLDIRLEPRIKELYRLHKERSANIDWSYHEFIPWDKAMSFKRVPWEESQVTLPEGVIVAVETALLTEVNLPWYTSHLDYTFKNSMEVINDFVRTWTAEEDQHSSLLETYLLVTRNVNPTRLHQLRRRVVESGWFPDFTNPLATMAYTSLQELATLVFYNNVARVAGAHDKDLATLLRRLAKDEALHYAFYRDTVKAHLELDPNFIVFFEDVIINFSMPGAIMPDFTERMKTIAIDTNYGPLQYFDQVLDVVVKYWDIENLQPTSEEAKQSQANIMKYHGRLKRIKDRQSAKNKIDA", "soluble on expression in E. coli": "not soluble"}
{"sequence": "MASYSEDQCSWRGSGLSQAVKNVEQVWLRCAEGSVEWLYPAGALRLTLSPRLPWSAMGPGESSRSPVSVCVKPDPHWGGAQLYLERDGVLELLVGDETSTTPGPAHVRCFSALPGERPALFLQATPHRDISRRIAAFRYELRGDWTAQPAVNTDPVSSEGACRPCNNTEILMAVCTSDFVVRGNIRSVGTDSNLNAAVIKVSATRVYRQKFALFPESGRLTRSGEIRTPLQCGVRPGAGSFLFTGRVHFGEAWLGCAPRYKDFLKAYEQAKQSLMIPCTLVND", "soluble on expression in E. coli": "not soluble"}
{"sequence": "MTEILQTLKEYIPISLEEMSGIKLMNRTDTKYVTSYQILKEILLAAGHDYRVQEVNGEYNIAYHTIYLDTADRDMYLTHQNGRVVREKIRIRTYVDSDLTFLEVKNKNNKGRTDKKRIRIGSIDTIKEDGGEAFLRQHAWYEQSQLLPLLENSFRRITLVNKHKTERLTIDTGVTFCCLQSGKISSLDNIVIIELKRDGHNSSPIKEILRKLHIQSSGFSKYCIGSALTVSHLKCNRLKPKLRMLNKMGVY", "soluble on expression in E. coli": "not soluble"}
{"sequence": "RRRAKGLRREEVAQLAGISATWLTWLEQGRSESVSAQTLSRLAAALQLSGAETDYLFDLAGLKNPQEKRADANPQAREILEEMLPRIDMPAYVLDRLWRAVAWNRAAEELFC", "soluble on expression in E. coli": "not soluble"}
{"sequence": "MDSWYPSKELIEACLKKGFHVIAMLKTNRILYPKGIAVQAKQFARYLEPRDTRLVTVGNERYRVYRYEGALNGLDDAVVLLTWKADQPMTPEHLHGVLSTDRELSDEDILRYYAQRWSIECFFRQVKDQLKLDGYRVRHIRAVKRYWVTVLLACVYSIAESQQDISAGLNLLRTRKGHSLIEFIYDAAKQDIPIDVVKKQLHVA", "soluble on expression in E. coli": "not soluble"}
{"sequence": "DVGRVLWLAEDITQRKRRREKQALIERVFEVSPVGIVVVERSGRISLANDRAEELLGLEREKITRRRYDQPEWNIYYKDGTEIPDSEHPVTQVLESGEPVFGFEHWIELEDGSERWLSSNAAPILGDDGTVERVVVGLDD", "soluble on expression in E. coli": "not soluble"}
{"sequence": "MKSAEIREAFLRFFEEKGHTRVASSSLIPANDPTLLFTNAGMNQFKDCFLGLEKRAYTRATTSQKCVRAGGKHNDLENVGYTARHHTFFEMLGNFSFGDYFKRDAIHYAWEFLTGEKWLNLPKEKLWVTVYATDDEAYDIWTKEVGVPAERMVRIGDNKGAPYASDNFWAMGDTGPCGPCTEIFFDHGPEIWGGPPGSPEEDGDRYIEIWNNVFMQFNRTADGVMHPLPAPSVDTGMGLERVSAVLQHVHSNYEIDLFQNLLKASAEAIGCANDDAPSLKVVADHIRSCSFLIADGVLPSNEGRGYVLRRIIRRACRHGNKLGARGTFFHKIVAALVAEMGDAFPELKQQQAHIERVLKTEEEQFAKTLEQGLKILEQDLAELQGSVIPGNVVFKLYDTYGFPVDLTNDIARERELTIDEDGFEREMEAQRERARASSAFGMDYNSLVKVDGETRFLGYQGVSGAGQIVALFRDGQAVERLEEGEEGVVVLDQTPFYAESGGQVGDSGYLEAAGVRFDVRDTTKAGGAHLHHGVVARGNLSVGGAVKAEVDASVRQATALNHSATHLLHAALRQVLGDHVQQKGSLVDSQRLRFDFSHFEAIKAEQLKALEDIVNAEIRRNTEVETEETDIDTAKAKGAMALFGEKYGDQVRVLSMGGDFSVELCGGTHVSRTGDIGLFKITSEGGVAAGVRRIEAVTGAAALAYLNGAEEQLKEAASLVKGSRDNLLDKLGALLERNRSLEKELEQLKAKAASAAGDDLSAAAVEIKGAKVLAARLDGLDGKALLALVDQLKNKLGRAVILLGGELDGKVVLVAGVTQDLTGQLKAGELMKQAAAAVGGKGGGRPDMAQGGGTDAAKLDEALALAQRF", "soluble on expression in E. coli": "not soluble"}
{"sequence": "SLTKPIGEKADPERLAAFLNEKGGNALSHLGFLGDKRFYFSSDGNALLLFGKIARRLVVLGDPSGQRESFPLVLEEFLNEAHQKGFSVLFYQIEREDMALYHDFGYNFFKLGEEAYVDLNTFTLTGKKKAGLRAINNRFEREEYTFHVDHPPFSDAFLEELKQISDEWLGSKKEKGFSLGFFDPSYLQKAPIAYMKNAEGEIVAFANVMPMYQEGEISVDLMRYRGDAPNGIMDALFIRMFLWAKEEGCTSFNMGMAPLANVGTAFTSFWSERFAAVIFNNVRYMYSFSGLRAFKEKYKPEWRGKYLAYRKNRSLSVTMFLVTRLIGKSKKDSV", "soluble on expression in E. coli": "soluble"}
{"sequence": "MSLKILVYGINYSPELTGIGKYTGEMVAWMAQEGHEVRVITAPPYYPQWKVGERYSAWRYRWEEGEATVWRCPLYVPKQPSTLKRLLHLGSFALSSFFPLMAQRRWKPDRIIGVVPTLFCTPGMRLLATLSGARTVLHIQDYEVDAMLGLGMAGKGKRGSVARLATAFERSALRNVDNVSTISRSMMNKAREKGVAAEKILFFPNWSEVARFQDVNDADVTALRQQLGLPEGKKIVLYSGNIGEKQGLEKVIDAAERLRDRPLIFAIVGQGGGKARMENMARERGLANIKFLPLQPYDALPALLKMGDCHLVVQKRGAADAVLPSKLTNILAVGGNAVITAEPHTELGQLCARYPGIAVCVEPESTDALVDGISQALAMPKNNMTAREYAERTLNKENVLRQFIADIRGEGHHHHHH", "soluble on expression in E. coli": "soluble"}
{"sequence": "MATVKIKFRPSSVDGKEGTVYYQVIHVRVARQISTSYRLFPAEWDKRRARIVAAPSDEGRRQHLSLLEGKIMEDTDRLEGIITTLERRRGAFTADDVVSAFNGGHYSLSFPVFMREVINGLKRLGKIRTSETYTSTLNSFIRFMEGRDVLPDDMDSDLMVAYEAWLESGGVSMNTISFYMRNLRAVYNRAVEKGLTVQRFPFKHVYTGVEKTTKRAVPLHVIKRLKSLDLSFEPAKAYARDMLLFSFYTRGMSMVDMAFLKKKDLNNGILSYRRKKTGQQLLIKWEPCMQEIVDRYNIPGSPYLLSVIDRPGTDERKQYINASHRINRHLKVLGKELGMSVPLTHYVARHSWASAARSKNIPISVISEGMGHDSETTTRIYLASLDTATIDRANKLILKSLQI", "soluble on expression in E. coli": "not soluble"}
{"sequence": "MDTGNNNNLPTLLKCNFPPYGKDYPGGFATGRFSDGRVPSDLIAEKLGLAKTLPAYMNPYLKPEDLLKGVTFASGGTGYDPLTAKIMSVISVWDQLINFKEYISKIKRHFGEEKAKDILEHSFFLVVSSSNDLAHTYLAQTHRYDRTSYANFLADSAVHFVRELHKLGARKIGVFSAVPVGCVPLQRTVFGDKELDGVILYINVYDTLFDMIQHPKKYGFEVADRGCCGKGLLAISYLCNSLNPFTCSNSSAYIFWDSYHPSERAYQVIVDNLLDKYLSKVY", "soluble on expression in E. coli": "soluble"}
{"sequence": "MGSDKIHHHHHHMTRTEHEISFGPYTAVATTRGGALRELRHEGRDLVVGFAADGEIPDYRGVICAPWPNRLAGGRYSFEGKDYQAVVNEEQRGTALHGLVFGAVWELLEHTASSVRLGTRIEPGDGYPGRLDVSVDYELRADGLHSTVRARNVGVEAAPYGACPHPYLIAGPAPLDEWSVQIPATEFMEVSADRLLPEGMAGVEGHAFDFRTEKVLGSVQIDHAFTGLIPNADGLAAVRVHDPSGTGVELEWDATWPWLQIHTADKPSGPTRLGLAVEPMTCPPDAFNSGTDVLRLAPGESHEASWTIRALSR", "soluble on expression in E. coli": "not soluble"}
{"sequence": "MGSDKIHHHHHHMQGKKFISPGAWFSMNYPSDWNEFEDGEGSFLFYNPDVWTGNFRISAFKGNASYGKDAIRQELKENDSASLVKIGTWDCAYSKEMFQEEGTYYTSHLWITGTGNIAFECSFTVPKGGSAKEAEEVIATLEARKEGEKYPAELIPVRLSEIYQINEGYEWVVSTVKQELKKDFQGVEEDLEKIQQVIDSGKISPKKKDEWLAIGITVCAILTNEVEGMEWKTLIDGNREVPVLEYQGRTIDPMKIAWSKVKAGQPCNIAEAYQSAIDHH", "soluble on expression in E. coli": "not soluble"}
{"sequence": "GSWDWNLITGEVCWSDELYHIFGRSPQESGATYDEFLSYVHPDDRDRVDNALKKGLNGESVAGNYRIILGDGEERIVRTEAEVVFDEK", "soluble on expression in E. coli": "not soluble"}
